One block for each binder: values may come before it.
Assays:
biotin-labeled human ADM [1] = molecular target: T1, biotin-labeled human ADM (human, not fully specified; biotin label (named human ADM-C-biotin in Example 1.4; position of the biotin not stated for the other lots)); test: flow staining of yeast-displayed Fab at graded antigen concentrations
T1 construct: Synthetic peptide; also called human ADM-C-biotin; hADM-Biotin
T1 peptide: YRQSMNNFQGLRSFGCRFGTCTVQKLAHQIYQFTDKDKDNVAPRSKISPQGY
Source text: (§1) For the first round of screening products of JYYDL227, 46 monoclones were picked for sequencing, and finally, a yeast monoclonal colony with a unique sequence was obtained for EC₅₀ identification by flow staining.
(§2) According to the staining results of the clones (as shown in Table 6) in combination with the similarity of the sequences of the clones, the monoclones expressing antibodies Ab2004.Am31 (with amino acid sequences of variable regions set forth in SEQ ID NOs: 31 and 36), Ab2004.Am32 (with amino acid sequences of variable regions set forth in SEQ ID NOs: 31 and 37), Ab2004.Am33 (with amino acid sequences of variable regions set forth in SEQ ID NOs: 32 and 36), Ab2004.Am34 (with amino acid sequences of variable regions set forth in SEQ ID NOs: 33 and 38), Ab2004.Am35 (with amino acid sequences of variable regions set forth in SEQ ID NOs: 31 and 38), Ab2004.Am36 (with amino acid sequences of variable regions set forth in SEQ ID NOs: 31 and 39), Ab2004.Am37 (with amino acid sequences of variable regions set forth in SEQ ID NOs: 34 and 38), Ab2004.Am38 (with amino acid sequences of variable regions set forth in SEQ ID NOs: 34 and 40), Ab2004.Am39 (with amino acid sequences of variable regions set forth in SEQ ID NOs: 33 and 41), and Ab2004.Am40 (with amino acid sequences of variable regions set forth in SEQ ID NOs: 31 and 42) were finally selected. The amino acid sequences of the Chothia-numbered CDRs of the candidate antibodies are shown in Table 7, and the amino acid sequences of the light and heavy chain variable regions of the candidate antibodies are shown in Table 8.

biotin-labeled mouse ADM [2] = molecular target: T2, biotin-labeled mouse ADM (mouse, not fully specified; biotin label (named mouse ADM-C-biotin in Example 1.4; position of the biotin not stated for the other lots)); test: as above
T2 construct: Synthetic peptide; also called mouse ADM-C-biotin; mADM-Biotin
T2 peptide: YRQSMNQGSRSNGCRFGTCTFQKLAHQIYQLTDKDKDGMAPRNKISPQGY
Source text: as §1, §2

biotin-labeled human ADM [3] = molecular target: T1, biotin-labeled human ADM; test: BLI (Octet RED96e), as in Example 3
Experimental: (§3) The affinity of antibodies 2004hz00, 2004hz97, and 2004hz99 for biotin-labeled human and mouse ADM (human ADM Cat. No. 894757, mouse ADM Cat. No. 894758, synthesized by GLBiochem) was determined by adopting Octet RED96e (Fortebio). The antigens and the antibodies were all diluted with 1× PBST (1× PBS: Sangon, B548117-0500; 0.02% Tween 20: sigma, P1379), the concentration of the antibody used was 100 nM, and the concentration of the antigen used was 2 μg/mL. The candidate antibody sample was added to a 96-well plate (Greiner bio-one, 655209) at 200 μL/well, the software parameters were set, the temperature was 30° C., and the standard kinetic signal was collected at a frequency of 5.0 Hz; and an SA sensor (Fortebio, Cat. No. 18-5020) was pre-wetted with 1× PBST for 10 min and then tested on a machine.
(§4) The equilibrium dissociation constants (KD) of the antibodies were calculated by measuring the association rates (Kon) and the dissociation rates (Koff) of the antigen-antibody in a 1:1 binding manner by adopting the Data Analysis 12.0 software from Fortebio.
(§5) Similar to Example 3, the affinity of the affinity-matured antibodies Ab2004.Am31 -Ab2004.Am40 and the parent antibody Ab2004.Am01 for human and mouse ADM was further determined, respectively, and the results are shown in Table 10. It can be seen from Table 10 […].

biotin-labeled mouse ADM [4] = molecular target: T2, biotin-labeled mouse ADM; test: BLI (Octet RED96e), as in Example 3
Experimental: as §3, §4, §5

biotin-labeled human ADM [5] = molecular target: T1, biotin-labeled human ADM; test: BLI (Octet RED96e), biotinylated antigen on SA sensor, antibody 100 nM, 1:1 fit
Experimental: as §3, §4

biotin-labeled mouse ADM [6] = molecular target: T2, biotin-labeled mouse ADM; test: as above
Experimental: as §3, §4

EC50 (biotin-labeled human ADM [1]): 0.74 nM
EC50 (biotin-labeled mouse ADM [2]): 14.3 nM
B6: Ab2004.Am38 (Fab displayed on yeast) (Fab, V domains shown)
VH: QVQLVQSGAEVKKPGASVKVSCKASGYTFTSYGISWVRQAPGQGLEWMGWISPYTGKTNYAQKLQGRVTMTRDTSTSTAYMELRSLRSDDTAVYYCAREGRWGGSFNIWGQGTMVTVSS
VL: DIQMTQSPSSLSASVGDRVTITCRASQGISSYLAWYQQKPGKAPKLLIYDTSDLDTGVPSRFSGSGSGTDFTFTISSLQPEDIATYYCQQYDNLPLTFGGGTKVEIK
notes: Yeast monoclonal colony of library JYYDL227 (Fab display)

Kd (biotin-labeled human ADM [3]): 0.766 nM
Response value (biotin-labeled human ADM [3]): 2.34
koff (biotin-labeled human ADM [3]): 0.000233 s⁻¹
kon (biotin-labeled human ADM [3]): 305000 M⁻¹ s⁻¹
Kd (biotin-labeled mouse ADM [4]): 2.21 nM
Response value (biotin-labeled mouse ADM [4]): 2.35
koff (biotin-labeled mouse ADM [4]): 0.000956 s⁻¹
kon (biotin-labeled mouse ADM [4]): 434000 M⁻¹ s⁻¹
B9: fully human antibody Ab2004.Am01 (expressed antibody) (antibody, V domains shown)
VH: QVQLVQSGAEVKKPGASVKVSCKASGYTFTSYGISWVRQAPGQGLEWMGWISAYQGNTNYAQKLQGRVTMTRDTSTSTAYMELRSLRSDDTAVYYCAREGRWGGSFNIWGQGTMVTVSS
VL: DIQMTQSPSSLSASVGDRVTITCRASQGISSYLAWYQQKPGKAPKLLIYDASNLETGVPSRFSGSGSGTDFTFTISSLQPEDIATYYCQQYDNLPLTFGGGTKVEIK
notes: also called parent antibody Ab2004.Am01

Kd (biotin-labeled human ADM [5]): 0.429 nM
Response value (biotin-labeled human ADM [5]): 2.58
koff (biotin-labeled human ADM [5]): 0.000201 s⁻¹
kon (biotin-labeled human ADM [5]): 468000 M⁻¹ s⁻¹
Kd (biotin-labeled mouse ADM [6]): 0.418 nM
Response value (biotin-labeled mouse ADM [6]): 3.06
koff (biotin-labeled mouse ADM [6]): 0.000194 s⁻¹
kon (biotin-labeled mouse ADM [6]): 465000 M⁻¹ s⁻¹
B12: humanized antibody 2004hz99 (antibody, human IgG1, kappa)
heavy: not shown
light: DVLMTQSPLSLPVTLGQPASISCRSSQSIIDSDGNTYLEWYQQRPGQSPRLLIYKVSNRFSGVPDRFSGSGSGTDFTLKISRVEAEDFGVYYCFQGSHFPYTFAQGTKLEIKRTVAAPSVFIFPPSDEQLKSGTASVVCLLNNFYPREAKVQWKVDNALQSGNSQESVTEQDSKDSTYSLSSTLTLSKADYEKHKVYACEVTHQGLSSPVTKSFNRGEC
notes: Human IgG1/kappa

Kd (biotin-labeled human ADM [5]): 0.457 nM
Response value (biotin-labeled human ADM [5]): 2.69
koff (biotin-labeled human ADM [5]): 0.000201 s⁻¹
kon (biotin-labeled human ADM [5]): 441000 M⁻¹ s⁻¹
Kd (biotin-labeled mouse ADM [6]): 0.454 nM
Response value (biotin-labeled mouse ADM [6]): 3.19
koff (biotin-labeled mouse ADM [6]): 0.000196 s⁻¹
kon (biotin-labeled mouse ADM [6]): 432000 M⁻¹ s⁻¹
B13: chimeric antibody 2004hz00 (antibody, human IgG1, kappa)
heavy: not shown
light: DVLMTQTPFSLPVSLGDQASISCRSSQSIIDSDGNTYLEWYLQKPGQSPKLLIYKVSNRFSGVPDRFSGSGSGTDFTLRISRVEAEDLGVYYCFQGSHFPYTFAGGTKLELKRTVAAPSVFIFPPSDEQLKSGTASVVCLLNNFYPREAKVQWKVDNALQSGNSQESVTEQDSKDSTYSLSSTLTLSKADYEKHKVYACEVTHQGLSSPVTKSFNRGEC
notes: Human IgG1/kappa

More lines, now with the values behind:

B1: Ab2004.Am32 (Fab displayed on yeast) (Fab, V domains shown)
VH: QVQLVQSGAEVKKPGASVKVSCKASGYTFTQYGIAWVRQAPGQGLEWMGWISAYQGNTNYAQKLQGRVTMTRDTSTSTAYMELRSLRSDDTAVYYCAREGRWGGSFNIWGQGTMVTVSS
VL: DIQMTQSPSSLSASVGDRVTITCRAAEGIGSYLAWYQQKPGKAPKLLIYDASNLETGVPSRFSGSGSGTDFTFTISSLQPEDIATYYCQQYDNLPLTFGGGTKVEIK
notes: as for B6
EC50 (biotin-labeled human ADM [1]): 0.41 nM
EC50 (biotin-labeled mouse ADM [2]): 2.2 nM

B2: Ab2004.Am01 (Fab displayed on yeast) (Fab, V domains shown)
VH: QVQLVQSGAEVKKPGASVKVSCKASGYTFTSYGISWVRQAPGQGLEWMGWISAYQGNTNYAQKLQGRVTMTRDTSTSTAYMELRSLRSDDTAVYYCAREGRWGGSFNIWGQGTMVTVSS
VL: DIQMTQSPSSLSASVGDRVTITCRASQGISSYLAWYQQKPGKAPKLLIYDASNLETGVPSRFSGSGSGTDFTFTISSLQPEDIATYYCQQYDNLPLTFGGGTKVEIK
EC50 (biotin-labeled human ADM [1]): 4 nM
EC50 (biotin-labeled mouse ADM [2]): 88.2 nM

B3: Ab2004.Am35 (Fab displayed on yeast) (Fab, V domains shown)
VH: QVQLVQSGAEVKKPGASVKVSCKASGYTFTQYGIAWVRQAPGQGLEWMGWISAYQGNTNYAQKLQGRVTMTRDTSTSTAYMELRSLRSDDTAVYYCAREGRWGGSFNIWGQGTMVTVSS
VL: DIQMTQSPSSLSASVGDRVTITCRASQGISSYLAWYQQKPGKAPKLLIYDVSILDAGVPSRFSGSGSGTDFTFTISSLQPEDIATYYCQQYDNLPLTFGGGTKVEIK
notes: as for B6
EC50 (biotin-labeled human ADM [1]): 1.47 nM
EC50 (biotin-labeled mouse ADM [2]): 2.26 nM

B4: Ab2004.Am37 (Fab displayed on yeast) (Fab, V domains shown)
VH: QVQLVQSGAEVKKPGASVKVSCKASGYTFTSYGISWVRQAPGQGLEWMGWISPYTGKTNYAQKLQGRVTMTRDTSTSTAYMELRSLRSDDTAVYYCAREGRWGGSFNIWGQGTMVTVSS
VL: DIQMTQSPSSLSASVGDRVTITCRASQGISSYLAWYQQKPGKAPKLLIYDVSILDAGVPSRFSGSGSGTDFTFTISSLQPEDIATYYCQQYDNLPLTFGGGTKVEIK
notes: as for B6
EC50 (biotin-labeled human ADM [1]): 0.88 nM
EC50 (biotin-labeled mouse ADM [2]): 6.74 nM

B5: Ab2004.Am33 (Fab displayed on yeast) (Fab, V domains shown)
VH: QVQLVQSGAEVKKPGASVKVSCKASGYTFTSYGISWVRQAPGQGLEWMGWISPYSGNTNYAQKLQGRVTMTRDTSTSTAYMELRSLRSDDTAVYYCAREGRWGGSFNIWGQGTMVTVSS
VL: DIQMTQSPSSLSASVGDRVTITCRASEGISEYLAWYQQKPGKAPKLLIYDASNLETGVPSRFSGSGSGTDFTFTISSLQPEDIATYYCQQYDNLPLTFGGGTKVEIK
notes: as for B6
EC50 (biotin-labeled human ADM [1]): 0.79 nM
EC50 (biotin-labeled mouse ADM [2]): 15 nM

B7: Ab2004.Am34 (Fab displayed on yeast) (Fab, V domains shown)
VH: QVQLVQSGAEVKKPGASVKVSCKASGYTFTHYGIAWVRQAPGQGLEWMGWISAYQGNTNYAQKLQGRVTMTRDTSTSTAYMELRSLRSDDTAVYYCAREGRWGGSFNIWGQGTMVTVSS
VL: DIQMTQSPSSLSASVGDRVTITCRASQGISSYLAWYQQKPGKAPKLLIYDVSILDAGVPSRFSGSGSGTDFTFTISSLQPEDIATYYCQQYDNLPLTFGGGTKVEIK
notes: as for B6
EC50 (biotin-labeled human ADM [1]): 1.06 nM
EC50 (biotin-labeled mouse ADM [2]): 4.43 nM

B8: Ab2004.Am36 (Fab displayed on yeast) (Fab, V domains shown)
VH: QVQLVQSGAEVKKPGASVKVSCKASGYTFTQYGIAWVRQAPGQGLEWMGWISAYQGNTNYAQKLQGRVTMTRDTSTSTAYMELRSLRSDDTAVYYCAREGRWGGSFNIWGQGTMVTVSS
VL: DIQMTQSPSSLSASVGDRVTITCRASQGISSYLAWYQQKPGKAPKLLIYDASNVDTGVPSRFSGSGSGTDFTFTISSLQPEDIATYYCQQYDNLPLTFGGGTKVEIK
notes: as for B6
EC50 (biotin-labeled human ADM [1]): 1.73 nM
EC50 (biotin-labeled mouse ADM [2]): 2.67 nM

B10: Ab2004.Am31 (Fab displayed on yeast) (Fab, V domains shown)
VH: QVQLVQSGAEVKKPGASVKVSCKASGYTFTQYGIAWVRQAPGQGLEWMGWISAYQGNTNYAQKLQGRVTMTRDTSTSTAYMELRSLRSDDTAVYYCAREGRWGGSFNIWGQGTMVTVSS
VL: DIQMTQSPSSLSASVGDRVTITCRASEGISEYLAWYQQKPGKAPKLLIYDASNLETGVPSRFSGSGSGTDFTFTISSLQPEDIATYYCQQYDNLPLTFGGGTKVEIK
notes: as for B6
EC50 (biotin-labeled human ADM [1]): 0.45 nM
EC50 (biotin-labeled mouse ADM [2]): 1.66 nM

B11: humanized antibody 2004hz97 (antibody, human IgG1, kappa)
heavy: not shown
light: DVVMTQSPLSLPVTLGQPASISCRSSQSIIDSDGNTYLEWYQQRPGQSPRLLIYKVSNRFSGVPDRFSGSGSGTDFTLKISRVEAEDFGVYYCFQGSHFPYTFGQGTKLEIKRTVAAPSVFIFPPSDEQLKSGTASVVCLLNNFYPREAKVQWKVDNALQSGNSQESVTEQDSKDSTYSLSSTLTLSKADYEKHKVYACEVTHQGLSSPVTKSFNRGEC
notes: Human IgG1/kappa
Kd (biotin-labeled human ADM [5]): 0.546 nM
Response value (biotin-labeled human ADM [5]): 2.39
koff (biotin-labeled human ADM [5]): 0.000252 s⁻¹
kon (biotin-labeled human ADM [5]): 461000 M⁻¹ s⁻¹
Kd (biotin-labeled mouse ADM [6]): 0.489 nM
Response value (biotin-labeled mouse ADM [6]): 3
koff (biotin-labeled mouse ADM [6]): 0.000231 s⁻¹
kon (biotin-labeled mouse ADM [6]): 472000 M⁻¹ s⁻¹

From US20260035456A1 (SHANGHAI JEYOU PHARMACEUTICAL, published 2026)
